Tests used:
Test in all cases: pull-down binding Z-score (relative to library population); higher = stronger binding
[1] = tested on: TO-3-N3-2 (biotin conjugate); conditions: RNA library: Library-2
Summary of the method: (§1)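 Streptavidin beads with 100 pmol of biotin-conjugated small molecule were incubated for 60 min at 25 °C with 1 μg of heat-folded Cy5- or Cy3-end-labelled RNA library in phosphate/NaCl/KCl buffer. Bound RNA was eluted in hot SDS after three washes and hybridised to a DNA barcode microarray at 55.5 °C for 20 h. Each binding score is a library-referenced Z-score, computed after beads-only subtraction and a trimmed mean of barcoded replicate probes.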

[2] = tested on: TO-N3-2 (biotin conjugate); conditions: RNA library: Library-2
Summary of the method: as §1

[3] = tested on: TO-3-N3 (biotin conjugate); conditions: RNA library: Library-2
Summary of the method: as §1

[4] = tested on: G-clamp-N3 (biotin conjugate); conditions: RNA library: Library-1 (pre-miRNA loops + repeats)
Summary of the method: as §1

TO-N3 (biotin conjugate) = conditions: RNA library: Library-2
Summary of the method: as §1

| Sequence | pull-down binding Z-score [1] | pull-down binding Z-score [2] | pull-down binding Z-score [3] | pull-down binding Z-score [4] | pull-down binding Z-score (TO-N3 (biotin conjugate)) |
| --- | --- | --- | --- | --- | --- |
| AACGUUAUGUGUGGUCUUUAACCUGUU [hsa-mir-6755] | 0.16 | -0.171 | -0.152 | -1.32 | -0.139 |
| AACUCCUGCGAGUCCCUGGAGUU [hsa-mir-1258] | -0.146 | -0.163 | 0.16 | 0.214 | -0.0874 |
| AACUCUGUUGAAUAUAAAUUGGAAUU [hsa-mir-367] | 0.00577 | -0.424 | -0.404 | -0.214 | -0.572 |
| AACUGUGCGGCCGGCCACACCGUCACACCGGGU [hsa-mir-8083] | 0.611 | 1.28 | 1.14 | -0.324 | 1.44 |
| AAGACACUAUCUGACAACAACAGGGCUCUU [hsa-mir-550b-2] | 0.201 | 0.234 | 0.681 | 0.0423 | 0.93 |
| AAGACACUAUCUUACAACAACAGGGCUCUU [hsa-mir-550b-1] | 0.281 | 0.298 | 1.17 | 0.13 | 1.01 |
| AAGAGGAGGUGGUUGUUUUCCUCCUCUU [hsa-mir-627] | 0.625 | 1.15 | 0.432 | -0.0833 | 0.944 |
| AAGAGGUAAGAAGAAGUGAAGCCCUCUU [hsa-mir-4778] | 0.35 | 0.281 | -0.393 | -0.836 | -0.292 |
| AAGCAGGGUCGGGCCUGGUU [hsa-mir-7641-2] | 0.0218 | 0.499 | 0.415 | 0.553 | 0.442 |
| AAGCAGGGUUGGGCCUGGUU [hsa-mir-7641-1] | -0.112 | 0.549 | -0.192 | -1.23 | -0.00685 |
| AAGCCCUACGAGAAACUGGGGUUUCUGGA [hsa-mir-765] | 0.277 | 0.503 | 0.529 | -1.01 | 0.686 |
| AAGCUCUUGCAGUAGGUUU [hsa-mir-1206] | -0.358 | -0.369 | -0.604 | 0.242 | -0.46 |
| AAGCUGACAGACAGCUG [hsa-mir-5691] | -0.398 | 0.218 | -0.057 | 1.16 | 0.144 |
| AAGCUGUGUGUGUCCAGC [hsa-mir-4732] | -0.101 | 0.52 | 0.132 | -0.258 | 0.33 |
| AAGGCCAGGACCCGCUGACCCAU [hsa-mir-6872] | -0.0792 | 0.567 | 0.148 | -1.17 | 0.411 |
| AAGGCCCUUGGGCACCCCAGGCCUU [hsa-mir-5700] | -0.081 | 0.656 | 0.259 | -1.26 | 0.181 |
| AAGGCGGGUGGUGCUCAGAUCGCCU [hsa-mir-326] | 0.00254 | 0.779 | -0.0387 | 0.799 | 0.274 |
| AAGGGUGUAUGAGAGAUCAACCCUU [hsa-mir-5697] | -0.0393 | 1.19 | 0.544 | 2.33 | 1.07 |

| Sequence | pull-down binding Z-score [1] | pull-down binding Z-score [2] | pull-down binding Z-score [3] | pull-down binding Z-score [4] | pull-down binding Z-score (TO-N3 (biotin conjugate)) |
| --- | --- | --- | --- | --- | --- |
| AAGGUGGAGUUCUGGGUGCUGUUUUCCCACUCU [hsa-mir-378i] | 0.299 | 0.429 | 0.0547 | -0.335 | 0.173 |
| AAGUAAUUGUUUCUAAUGUACU [hsa-mir-412] | 0.0532 | 0.583 | -0.549 | 0.96 | 0.00941 |
| AAGUAGUUGGCGUCUUCAGAGACACUU [hsa-mir-643] | 0.0519 | 0.0279 | 0.57 | -0.0629 | 0.531 |
| AAGUCCGGCUCCAGAACCUGGACACCGCUCAG [hsa-mir-4638] | 0.379 | 1.09 | 0.52 | -1.24 | 0.898 |
| AAGUCGAUUUCCAAAAGUGACUU [hsa-mir-3124] | -0.588 | -1.11 | -0.856 | -0.161 | -1.11 |
| AAGUGCCGUCCUCAUGAGCCCCU [hsa-mir-6769b] | 0.181 | 0.802 | 0.296 | -0.873 | 0.59 |
| AAGUGGAGCAGGAAUGCGCUUUUCUCCACUG [hsa-mir-5187] | 0.27 | 0.231 | 0.299 | 1.93 | 0.567 |
| AAGUUCCCUCUGGCUGGAAC [hsa-mir-1249] | -0.021 | 0.112 | 0.574 | -0.433 | 0.559 |
| AAUAAAGUAUGUCCACAGCUGAAAGGACAUACUUUAUU [hsa-mir-4464] | -0.236 | -1.28 | -0.7 | -0.77 | -1.18 |
| AAUCCCAGCACUUUGGGAG [hsa-mir-3929] | -0.0338 | 0.171 | 0.0452 | 0.566 | 0.0138 |
| AAUCCCUCUCUUUCUAGUUCUUCCUAGAGUGAGGAAAA [hsa-mir-320b-1] | -0.166 | -0.55 | -0.294 | -1.69 | -0.325 |
| AAUGACUCAUAGUCAA [hsa-mir-4475] | -0.157 | -0.666 | 0.512 | -0.88 | 0.374 |
| AAUGCAGUCUGCACCCUGCUGCAUU [hsa-mir-6504] | -0.145 | 0.0157 | 0.237 | -0.398 | 0.0527 |
| AAUGCAUAGAAAGCAUU [hsa-mir-4272] | 0.00602 | -0.629 | -0.177 | 1.58 | -0.421 |
| AAUGCUGUGUUUCUGUAUGGUAUU [hsa-mir-92a-1] | -0.22 | -0.268 | 0.212 | -0.453 | 0.143 |
| AAUGUCAGGGCCACCCCUGACCUU [hsa-mir-6837] | -0.382 | -0.497 | -0.431 | 0.482 | -0.481 |
| AAUUGGCUUUUACAAAAGACCAACU [hsa-mir-4798] | -0.259 | -0.6 | 0.117 | 0.914 | 0.0359 |
| AAUUUUCUCUUGUCUAAAAGAAAAGAACG [hsa-mir-521-2] | -0.0994 | -0.765 | -0.905 | -0.762 | -0.996 |

From the supplement of paper PMC11865577
